Assay: label from the status in PepcDB records

YYNIYYPRGKDFYNVGGDYKFFWKRFSLLGETAIDKCGTWATMNMLRYSPKGGTQLIVMNRYYDAKYQSVYARSIGEGSTVQNESGFYIGLETSILKYIKMTCYGDFFYFPWKKYLVSKAGTKGLDGLLQLSYSPTYELEMFIRYRYKKKEKDFTAADKTKQTIPSIQQKCRYQLNYSVKDKLTLKTIADYVRINFRGQSASNGFLVSQSAAYTFHLLPLQLDLSAAWFNTDDYNSRLTIYEKSVLYAFSMPSFYYKGMRVAVNARYELNKHIILQAKYGTTHYFNRDKISSALEEIDGSTKSDLYLQLRLKF
protein production: failed

MSNSSQYYTRTAQFLHWIMAIIFISAWIIGFYSGNFLNYETDGSFKGDVITLHKNIATTIIFLVMIRIFWRYTHPTPELPATMSPLMKKLAHLGHLALYVILIALPISGCFYSWSAGHPAPVLYLFNIPQLIGENPEIMAIAKPVHVYLSWFAGLMVAGHILAALKHHFIDKDNVLKSMIKQSR
protein production: failed

FEDFNTNPYQPSKVPASNLLSTMFNVYACPQQNACQEINCMWASFSGQVTATANWSFGKNIFAYYNASEGHNDSSWGRLYGYIYPSFFLVENSTEKKGVIYAMAQLTRVYGMQLLASLQGPIPYTQMKAGETEAPYDNEQTVWHAMFDDLDNAITILKSAATFGVNQDLAVVDQFYKGDCSKWLKFANTLKLRMAIRISGVEPEYAQTKAQEAVLGGVMESVGDSSYDTTNGGINENGYAIVSGWPEVRANACLVSYMNGYNDPRRPAYFTPQTQTAAGGYVGVRSGSAEIPEPTVYANYSKLFIATDKTLPQPVMYAAEAAFLRAEGALKGWNMGGDAKTFYEKGVRLSFEEFGVSGADDYLADATSIPGNYVDNLIAGHTGNNYTNQSSITIKWEDGADDAKKLERVLTQKWIACYPDPMNGWADFRRTGYPRIFPATESMNADCNTGRGQRRLRFTRSEYNNNKANVEAAVSMLSNGKDSNGTDLWWAMKENGTY
protein production: not failed

MTTIFPPIPDRLRPLLRIAFMCGILATLPILCDVYAADEPPAARDEARPEEAAEPAATSAPAPAEQPVTFAITTILVERNTLFASDRLQEVMAPFVGDGKTADDVEKAREALEKFHHDQGYPTVIVNIPEQSVEEGIIRLQVVEQRINTVTVTGNRYFSREMILGKFPSLQPGGIPHVPTLQAEFTKAGRNPDLKITPAMAPSREVGYVDVELKIEEKLPLHGSLELNNRSSHDTSALRLNGAIRYDNLWQREHSVGLQYQTAPEKTREVQILSGSYVLPDPWHDDRRIVFYGVWSDTNTFASLGDMQVLGKGIIVGGRYLIPLAGKGLYNHSATLGIDYKRFDESAGFKTRVSYLPLSTAYDASLQDSTGYTLFNAGLNFAFRGAVTDQSEMAVKRSEAKGNYLAAILGLERQQKLPLGMGLRARIDGQLSSEPLIPNEQFVAGGMDSVRGYKESEALGDNGFHGTVELRVPDITLGSAMSMTPYVFYDMAAVELKKPLPGENRSQTLQGTGAGVRGMLFKFLEYQVDFAVALSDSDRIKEGDQRVHFRVSCAF
protein production: failed

MFRSLNSYLIDFTGLVVISVLICLVSAGGSLASGLPFQIPASVLQLNTIFISILIEALPFVLIGVLIAGFIQIFVTEEHIRSLFPKNRFSGVIVSCLLGACFPACECGIVPIVRRLVSKGVPIYAGVGFLLTGPLINPIVVLSTYMAFGNDLRMAVLRVAVGFAAAVIIAFAISMMFRSSQLKTESRQTAAHCAHSGRRSPFSEKLFDMLKHAVDEFFDMGRFLIIGALVAALVQTYLPLKSLFVFGGGMLDSALVMMGLAYFLSLCSEADAFIGASFTNLFPSSSILAFLVYGPMLDLKNTVMMLHAFKPKFVICLSVLITVVVFVCIKVVSLL
protein production: failed

MGSASIGYQFGISARFYGNFNLSSDITVSSLPCKLDVSIKSLFSAPSSTHKEYSNRARVCSLPNTDGYCDEKFETPILDSIETPLQLKNLSVKELKLLADEIRTELHSVLWKKTQKSMNPSFAAIELTLALHYVFRAPVDNILWDAVEQTYAHKVLTRRWSAIPSRQNSGISGVTSRLESEYDSFGTGHGCNSISAGLGLAVARDMKGKRDRVVAVIDNVTITAGQAYEAMSNAGYLDSNMIVILNDSRHSLHPNMEEGSKASISALSSIMSKIQSSKVFRKFRELAKAMTKRIGKGMYEWAAKVDEYARGMVGPTGSTLFEELGLYYIGPVDGHNIEDLVCVLREVSSLDSMGPVLVHVITEGNRDAETVKNIMVKDRRTYSDCFVEALVMEAEKDRDIVVVHAGMEMDPSLLTFQERFPDRFFNVGMAEQHAVTFSAGLSSGGLKPFCIIPSAFLQRAYDQVVHDVDRQRKAVRFVITSAGLVGSDGPVQCGAFDIAFMSSLPNMIAMAPADEDELVNMVATAAYVTDRPVCFRFPRGSIVNMNYLVPTGLPIEIGRGRVLVEGQDVALLGYGAMVQNCLHAHSLLSKLGLNVTVADARFCKPLDIKLVRDLCQNHKFLITVEEGCVGGFGSHVAQFIALDGQLDGNIKWRPIVLPDGYIEEASPREQLALAGLTGHHIAATALSLLGRTREALLLMS
protein production: failed

MTKIAILGANGRLGRVVAKAFIDAGFDVRTVTRTGKVPAELDGATAVAGDALDRQSLISATEGVDIIFNGLNPIYTDWGKCLPMAENVMAACHANNALHLFPGTVYNYGSPMPAVITEDTPFHPTTEKGRIRCAMEELFRREADAGRVRTILLRAGDFFGGTGSGSWFDLVVAAKMSKGVYTAPGPVDLVHEWAYLPDFAVGFVALARNLDRLGSYEALNFPGHAVTDLEIKAAAEKALGRPLKMTSMPWWVLRAGSPFVAMWREIVSMSYLRFEPHQLASTRLEGIIGEIPHTPLDQAVAQALEDIGIATVKGMKAA
protein production: failed

MSKTPRIRIPPEVRQYVFQRDKFQCQSCGKTGLETNLTIDHIIPLARGGQNDISNLHTLCFDCNRCKTDKLDSRFRRHFEI
protein production: failed

MFTALLFTLGIAAATSFNASAIDNHNNKNKLPDIGISGYSVLSTDKELQIGKAMMRQLRASQPLIQDPVLIEYINHLGNSLVKNAQGVNYAFEFFLINNNELNAFAFFGGHVGIHSGLITTADTESELASVIAHEISHVTQRHLARRLESQSQTQGLTMAAMLSSVLITLVNPTVGIAALSASMAVTQQASINYTRGNEKEADRVGIALLASSNYDPQGAASFFSKMSTKYRYASKPPAMLLTHPLPESRIADARQRALNYPARPLPPSLGFELTKARLKSRYQGEAKSNISFFKLQLEKKRYAIKAAAQYGLALSYFENKQTSEALQLLEMLEKNDKDNLFYVDALTDVYIANNQANKAIKMLERLNLFMPNNQVVSLNYANALLSVKEYDLAAQILQDFLLVNPGNFIAYDILTTLYRTQEKTGLMHMSKAEVYALLGAYPKAVDELQTSYAFLDEQPLMQKRVKARILQLQEQENRLKRL
protein production: failed

AAQEKVVKLKIVQTSDVHGNYYPYNFITRKDWQGSLARIYAFVEKEREQYKENLILLDNGDILQGQPTAYYYNYIDTVSPHLCAEMMNYMKYDAGNMGNHDVETGRAVFDRWINTCDFPVLGANIIDISTGEPHLPPYKVMERDGVKIVILGMITPAIPAWLSENLWKGLRFDDMEETARKWMKIIREKENPDLMIGLFHAGQEAFKMSGKYNENASLSVAKNVPGFDIVLMGHDHARECKKVMNVAGDSVLVIDPASNGIVLSNIDVTLKLKDGKVRSKDIKGVLTETKDYGISEDFMKNFAPQYDTVRNFVSK
protein production: failed

MSWYRRTKLVFDSLRRNINPKILPRSHVTSRINNPIGSSNPSAKFSSISSREVGLRSWTSLGRNTNRIAYNPFLSQPKRYYYVDRYQVRHFKPRGPGRWFQNPRTVFTVVLVGSVGLITLIVGNTETIPYTKRTHFILLSKPMEKLLGETQFEQIKKTYQGKILPATHPESIRVRLIAKEVIDALQRGLSNERVWSDLGYASTESSLGGGSDKGVKEMEMAMSGEDTMTDMKWSKEDQVLDDQWIQKSRKKDSKAHAATSHLEGISWEVLVVNEPIVNAFCLPAGKIVVFTGLLNHFKSDAEVATVIGHEVGHAVARHVAEGITKNLWFAILQLVLYQFVMPDLVNTMSALFLRLPFSRKMEIEADYIGLLLLASAGYDPRVAPTVYEKLGKLGGDALGDYLSTHPSGKKRSKLLAQANVMEEALMIYREVQAGRTGVEGFL
protein production: failed

MAIDTNSSTPLVSVITPTYNRPNYLQAALTSAVRQTYSHIEIIVCDNCSPQNPQAIVDSFDDSRIRFFRNSSNMGMFANTIKAFKMARGKYVACLLDDDLWEEDFLEKLVPPLEANPNLALAFCDHYIMDANGNIDDALTEEYSRSYKRVDLPEGIYQPFYRMGLVDRSVSTATAAVMRRDAIAWDAIPAEVGGSWDIYLNYLCCRSGLGAYFYPEKLTRYRVHEQTETMLSGKRDAQAKIRKAQADMFCYEQFMADERLQELKPYFQQQWAHVSTTLGIGFMRSKQMKLARSYFWRSLKQSLKLRTMAGLMLSFTPPTIASRF
protein production: failed

MKPLKEVVGAYLALSDAQRQLVAGEYDEAAANCRRAMEISHTMPPEEAFDHAGFDAFCHAGLAEALAGLRSFDEALHSADKALHYFNRRGELNQDEGKLWISAVYSRALALDGLGRGAEAMPEFKKVVEMIEERKGETPGKERMMEVAIDRIAQLGAS
protein production: not failed

MSEAKELIKKMCDLQNSNEEIQKEMAGWSGVVQYKLDGYYFYVEYKSDGTCEFKEGVHSSPTFTVVAPPDFWLAVLKGQEDPVSGFMMGKYRIEGNIMEAQRLAGVIKKFQGKFEL
protein production: not failed

MITMTEVKGKTANESRVFKTSRVFPTDLNDHNTLFGGKILSEMDMVASISASRHSRKECVTASMDWVDFLHPVRSSDCVSYESFVIWTGRTSMEVFVKVVSEYLISGEKRIAATSFVTFVALSKENNPVPVPRVIPDTEEEKESHRIAVLRAEQRHIRKAESKKVATLLTF
protein production: not failed

MPLVKRNIDPRHLCHTALPRGIKNELECVTNISLANIIRQLSSLSKYAEDIFGELFNEAHSFSFRVNSLQERVDRLSVSVTQLDPKEEELSLQDITMRKAFRSSTIQDQQLFDRKTLPIPLQETYDVCEQPPPLNILTPYRDDGKEGLKFYTNPSYFFDLW
protein production: failed

MLHKRASEANDKNDNTIIGSDLASSKKRRIDFTESSSDKSSSILASGSSRGFHGDSVVQQIDMAFGNSNRQEIDEDLHSRQLAVYGRETMRRLFASNVLISGMHGLGAEIAKNLILAGVKSVTLHDERVVELWDLSSNFVFSEDDVGKNRADASVQKLQDLNNAVVVSSLTKSLNKEDLSGFQVVVFSDISMERAIEFDDYCHSHQPPIAFVKADVRGLFGSVFCDFGPEFAVLDVDGEEPHTGIIASISNENQAFISCVDDERLEFEDGDLVVFSEVEGMTELNDGKPRKIKSTRPYSFTLDEDTTNYGTYVKGGIVTQVKQPKLLNFKPLREALKDPGDFLFSDFSKFDRPPLLHLAFQALDHFKAEAGRFPVAGSEEDAQKLISIATAINTGQGDLKVENVDQKLLRHFSFGAKAVLNPMAAMFGGIVGQEVVKACSGKFHPLFQFFYFDSVESLPSEPVDSSDFAPRNSRYDAQISVFGAKFQKKLEDAKVFTVGSGALGCEFLKNLALMGVSCGSQGKLTVTDDDIIEKSNLSRQFLFRDWNIGQAKSTVAASAAAVINPRFNIEALQNRVGAETENVFDDAFWENLTVVVNALDNVNARLYVDSRCLYFQKPLLESGTLGTKCNTQSVIPHLTENYGASRDPPEKQAPMCTVHSFPHNIDHCLTWARSEFEGLLEKTPAEVNAYLSSPVEYTNSMMSAGDAQARDTLERIVECLEKEKCETFQDCLTWARLRFEDYFVNRVKQLIYTFPEDAATSTGAPFWSAPKRFPRPLQYSSSDPSLLNFITATAILRAETFGIPIPEWTKNPKEAAEAVDRVIVPDFEPRQDAKIVTDEKATTLTTASVDDAAVIDDLIAKIDQCRHNLSPDFRMKPIQFEKDDDTNYHMDVIAGLANMRARNYSIPEVDKLKAKFIAGRIIPAIATSTAMATGLVCLELYKVLDGGHKVEAYRNTFANLALPLFSMAEPLPPKVVKHRDMAWTVWDRWVLKGNPTLREVLQWLEDKGLSAYSISCGSCLLFNSMFTRHKERMDKKVVDLARDVAKVELPPYRNHLDVVVACEDEDDNDVDIPLVSIYFR
protein production: failed

From a protein production outcome set (Wang et al. 2014)
